T1: METTL14 (human, UniProt Q9HCE5 1-456)
T1 construct: METTL14, human; also called MTC core subunit; source: baculovirus-insect cell expression system, co-expressed, purified
T1 sequence (looked up): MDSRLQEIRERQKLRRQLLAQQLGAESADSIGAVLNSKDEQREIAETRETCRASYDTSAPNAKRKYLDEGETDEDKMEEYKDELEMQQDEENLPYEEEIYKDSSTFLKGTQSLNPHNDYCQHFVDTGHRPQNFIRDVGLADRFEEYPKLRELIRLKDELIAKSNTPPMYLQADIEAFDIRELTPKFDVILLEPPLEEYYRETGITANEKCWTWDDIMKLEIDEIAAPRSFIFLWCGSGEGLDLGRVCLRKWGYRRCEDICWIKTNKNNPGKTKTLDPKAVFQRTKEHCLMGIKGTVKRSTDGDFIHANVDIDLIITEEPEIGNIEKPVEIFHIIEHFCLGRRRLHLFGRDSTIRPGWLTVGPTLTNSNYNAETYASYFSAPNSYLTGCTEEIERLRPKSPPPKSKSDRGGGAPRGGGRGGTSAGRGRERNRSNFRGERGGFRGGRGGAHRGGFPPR

T2: VIRMA^381–1486 (human, UniProt Q69YN4 381-1486)
T2 construct: probably the baculovirus-insect cell system used for the other complexes
T2 sequence (looked up): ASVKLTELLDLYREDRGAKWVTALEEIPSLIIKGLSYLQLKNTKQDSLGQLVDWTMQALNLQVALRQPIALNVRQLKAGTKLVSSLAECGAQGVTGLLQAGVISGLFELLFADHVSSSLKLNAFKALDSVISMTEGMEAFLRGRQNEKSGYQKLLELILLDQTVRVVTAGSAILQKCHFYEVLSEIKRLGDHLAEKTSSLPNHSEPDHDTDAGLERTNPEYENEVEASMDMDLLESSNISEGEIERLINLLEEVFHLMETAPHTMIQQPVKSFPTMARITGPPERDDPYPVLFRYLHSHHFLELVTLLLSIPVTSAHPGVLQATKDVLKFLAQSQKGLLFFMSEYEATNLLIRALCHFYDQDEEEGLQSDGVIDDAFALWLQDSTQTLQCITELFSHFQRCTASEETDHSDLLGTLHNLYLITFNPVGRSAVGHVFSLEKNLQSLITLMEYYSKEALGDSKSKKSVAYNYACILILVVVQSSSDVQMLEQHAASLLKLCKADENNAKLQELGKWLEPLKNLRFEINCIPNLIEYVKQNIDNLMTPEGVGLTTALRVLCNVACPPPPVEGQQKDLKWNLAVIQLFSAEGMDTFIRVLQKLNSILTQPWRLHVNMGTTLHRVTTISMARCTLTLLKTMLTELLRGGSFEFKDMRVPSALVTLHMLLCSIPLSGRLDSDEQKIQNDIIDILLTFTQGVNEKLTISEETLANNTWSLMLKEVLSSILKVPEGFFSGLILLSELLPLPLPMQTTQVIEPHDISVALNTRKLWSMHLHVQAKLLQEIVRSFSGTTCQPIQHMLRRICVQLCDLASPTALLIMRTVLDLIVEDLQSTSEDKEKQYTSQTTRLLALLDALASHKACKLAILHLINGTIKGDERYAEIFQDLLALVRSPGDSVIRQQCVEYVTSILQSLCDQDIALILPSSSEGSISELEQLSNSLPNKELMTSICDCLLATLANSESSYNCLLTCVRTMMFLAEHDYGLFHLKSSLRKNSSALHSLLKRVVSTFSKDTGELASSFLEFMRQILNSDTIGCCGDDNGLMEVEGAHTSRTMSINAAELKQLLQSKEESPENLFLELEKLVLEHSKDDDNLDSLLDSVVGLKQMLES


Assays:
[1] = molecular target: T1, METTL14; experiment: SEC; gel filtration analysis of the purified, co-expressed METTL3–METTL14–WTAP 1-273–VIRMA 381-1486 complex; settings: both partners purified
[2] = molecular target: the molecule itself; experiment: cryo-EM structure; METTL3–METTL14–WTAP 1-273–VIRMA 381-1486 complex, gradient fixation, 3.1 Å; only WTAP 171-237 and VIRMA 381-1292 seen
[3] = molecular target: T2, VIRMA^381–1486; experiment: as above; settings: both partners purified
[4] = molecular target: T3, METTL3 (human, UniProt Q86U44 1-580); experiment: cross-linking; in vitro CXMS of the quaternary M–M–W–V complex with BS3, FDR < 5%; settings: both partners purified
T3 construct: METTL3, human; The same molecule is used for the co-purifications, the gel filtration and the cross-linking; also called MTC core subunit; source: baculovirus-insect cell expression system, co-expressed, purified
T3 sequence (Q86U44 whole entry): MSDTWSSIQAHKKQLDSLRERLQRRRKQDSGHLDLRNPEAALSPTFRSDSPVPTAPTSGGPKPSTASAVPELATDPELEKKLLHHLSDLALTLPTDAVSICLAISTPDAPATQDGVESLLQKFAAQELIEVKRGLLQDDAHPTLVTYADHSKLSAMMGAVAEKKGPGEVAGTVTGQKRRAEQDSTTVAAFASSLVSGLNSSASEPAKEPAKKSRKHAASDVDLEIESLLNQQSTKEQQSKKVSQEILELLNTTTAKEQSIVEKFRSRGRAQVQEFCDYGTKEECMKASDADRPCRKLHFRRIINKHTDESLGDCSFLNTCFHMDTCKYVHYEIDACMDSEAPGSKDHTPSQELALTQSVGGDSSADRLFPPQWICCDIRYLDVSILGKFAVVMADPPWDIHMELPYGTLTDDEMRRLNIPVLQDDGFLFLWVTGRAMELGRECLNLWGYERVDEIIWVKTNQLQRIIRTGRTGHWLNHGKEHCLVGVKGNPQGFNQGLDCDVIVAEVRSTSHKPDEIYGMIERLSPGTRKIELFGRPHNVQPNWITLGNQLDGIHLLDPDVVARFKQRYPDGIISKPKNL

[5] = molecular target: the molecule itself; experiment: crystal structure; WTAP 130-241 alone, 2.40 Å

Row | Binder | binding result [1] | stoichiometry N [2] | stoichiometry N [3] | binding result [4] | stoichiometry N [5]
1 | WTAP^1–273 (domain or fragment, human, UniProt Q15007 1-273, looked up, probably the baculovirus-insect cell system used for the other complexes; also called WTAPA; WTAPB) MTNEEPLPKKVRLSETDFKVMARDELILRWKQYEAYVQALEGKYTDLNSNDVTGLRESEEKLKQQQQESARRENILVMRLATKEQEMQECTTQIQYLKQVQQPSVAQLRSTMVDPAINLFFLKMKGELEQTKDKLEQAQNELSAWKFTPDSQTGKKLMAKCRMLIQENQELGRQLSQGRIAQLEAELALQKKYSEELKSSQDELNDFIIQLDEEVEGMQSTILVLQQQLKETRQQLAQYQQQQSQASAPSTSRTTASEPVEQSEATSKDCSRL | binds | 2 | 2 WTAP:VIRMA | binds | –
2 | WTAP^130–241 (domain or fragment, human, UniProt Q15007 130-241, looked up, WTAP, human, residues 130-241; density assigned for residues 150-241; also called WTAP alone; WTAP^150–241 (assigned density); source: Escherichia coli expression system) QTKDKLEQAQNELSAWKFTPDSQTGKKLMAKCRMLIQENQELGRQLSQGRIAQLEAELALQKKYSEELKSSQDELNDFIIQLDEEVEGMQSTILVLQQQLKETRQQLAQYQQ | – | – | – | – | 2

— PMC9715571 (Cell Research, 2022)
